In patent publication US20180155451A1 (published 2018):

Experiments:
FcγRIIb = target: T1, FcγRIIb (human, UniProt P31994 43-217); test: SPR (Biacore), binding relative to GpH7-A5/GpH7-B3/GpL16-k0 = 100
T1 construct: extracellular domain; also called 2b; FcgRIIb
T1 sequence (looked up): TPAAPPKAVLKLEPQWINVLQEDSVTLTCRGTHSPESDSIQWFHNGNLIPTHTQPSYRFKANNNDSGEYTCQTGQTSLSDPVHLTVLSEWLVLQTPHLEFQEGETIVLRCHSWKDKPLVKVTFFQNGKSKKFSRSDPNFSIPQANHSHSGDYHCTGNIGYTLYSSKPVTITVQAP
Experimental: (§1) Analysis of interaction between objective antibody and the FcγR was carried out using Biacore T100 (GE Healthcare). HBS-EP+ (GE Healthcare) was used as the running buffer, and the measurement temperature was set to 25° C. Chips produced by immobilizing the antigen peptide by the amine coupling method to a Series S Sencor Chip CM5 (GE Healthcare), or alternatively, chips produced by allowing preliminarily biotinylated antigen peptides to interact with and immobilize onto a Series S Sensor Chip SA (certified) (GE Healthcare) were used. Antibodies of interest were captured onto an antigen peptide-immobilized chip, and allowed to interact to each FcγR diluted with running buffer. To regenerate and repeatedly use the chip, the antibodies captured on the chip were washed off by reacting 10 mM glycine-HCl, pH 1.5.
(§2) The FcγR-binding activity of each antibody was assessed primarily using as an indicator the FcγR-binding activity and dissociation constant for FcγR.

[1] = target: T2, FcγRIIb extracellular domain with C-terminal His tag (human, UniProt P31994 43-217); test: SPR (Biacore), relative binding, GpH7-A5/GpH7-B3/GpL16-k0 = 100
T2 construct: extracellular domain; also called 2b; FcgRIIb; not shown: His tag at the C terminus
T2 sequence (looked up): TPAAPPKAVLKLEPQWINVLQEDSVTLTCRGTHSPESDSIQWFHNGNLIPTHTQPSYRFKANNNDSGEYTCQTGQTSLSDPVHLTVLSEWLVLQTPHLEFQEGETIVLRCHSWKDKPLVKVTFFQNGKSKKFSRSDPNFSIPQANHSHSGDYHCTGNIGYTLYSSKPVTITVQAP
Experimental: as §1, §2

| Binder | He/Con_2b (FcγRIIb) | He/Con_2b [1] |
| --- | --- | --- |
| GpH7-A5/GpH7-B3 variant S298_06M/GpL16-k0 (antibody, human IgG1, kappa, also called He Ab S298_06M) heavy 1: not shown heavy 2: not shown light: DIVMTQSPLSLPVTPGEPASISCQASESLVHSNRNTYLHWYLQKPGQSPQLLIYKVSNRFSGVPDRFSGSGSGTDFTLKISRVEAEDVGVYYCSQNTHVPPTFGQGTKVEIERTVAAPSVFIFPPSDEQLKSGTASVVCLLNNFYPREAKVQWKVDNALQSGNSQESVTEQDSKDSTYSLSSTLTLSKADYEKHKVYACEVTHQGLSSPVTKSFNRGEC | 102 % of control | – |
| GpH7-A5/GpH7-B3 variant T335_15Y/GpL16-k0 (antibody, human IgG1, kappa, also called He Ab T335_15Y) heavy 1: not shown heavy 2: not shown light: DIVMTQSPLSLPVTPGEPASISCQASESLVHSNRNTYLHWYLQKPGQSPQLLIYKVSNRFSGVPDRFSGSGSGTDFTLKISRVEAEDVGVYYCSQNTHVPPTFGQGTKVEIERTVAAPSVFIFPPSDEQLKSGTASVVCLLNNFYPREAKVQWKVDNALQSGNSQESVTEQDSKDSTYSLSSTLTLSKADYEKHKVYACEVTHQGLSSPVTKSFNRGEC | 108 % of control | – |
| GpH7-A5/GpH7-B3 variant T335_16H/GpL16-k0 (antibody, human IgG1, kappa, also called He Ab T335_16H) heavy 1: not shown heavy 2: not shown light: DIVMTQSPLSLPVTPGEPASISCQASESLVHSNRNTYLHWYLQKPGQSPQLLIYKVSNRFSGVPDRFSGSGSGTDFTLKISRVEAEDVGVYYCSQNTHVPPTFGQGTKVEIERTVAAPSVFIFPPSDEQLKSGTASVVCLLNNFYPREAKVQWKVDNALQSGNSQESVTEQDSKDSTYSLSSTLTLSKADYEKHKVYACEVTHQGLSSPVTKSFNRGEC | 102 % of control | – |
| GpH7-A5/GpH7-B3 variant T335_13S/GpL16-k0 (antibody, human IgG1, kappa, also called He Ab T335_13S) heavy 1: not shown heavy 2: not shown light: DIVMTQSPLSLPVTPGEPASISCQASESLVHSNRNTYLHWYLQKPGQSPQLLIYKVSNRFSGVPDRFSGSGSGTDFTLKISRVEAEDVGVYYCSQNTHVPPTFGQGTKVEIERTVAAPSVFIFPPSDEQLKSGTASVVCLLNNFYPREAKVQWKVDNALQSGNSQESVTEQDSKDSTYSLSSTLTLSKADYEKHKVYACEVTHQGLSSPVTKSFNRGEC | 102 % of control | – |
| GpH7-A5/GpH7-B3 variant T335_19Q/GpL16-k0 (antibody, human IgG1, kappa, also called He Ab T335_19Q) heavy 1: not shown heavy 2: not shown light: DIVMTQSPLSLPVTPGEPASISCQASESLVHSNRNTYLHWYLQKPGQSPQLLIYKVSNRFSGVPDRFSGSGSGTDFTLKISRVEAEDVGVYYCSQNTHVPPTFGQGTKVEIERTVAAPSVFIFPPSDEQLKSGTASVVCLLNNFYPREAKVQWKVDNALQSGNSQESVTEQDSKDSTYSLSSTLTLSKADYEKHKVYACEVTHQGLSSPVTKSFNRGEC | 100 % of control | – |
| GpH7-A5/GpH7-B3 variant T335_07I/GpL16-k0 (antibody, human IgG1, kappa, also called He Ab T335_07I) heavy 1: not shown heavy 2: not shown light: DIVMTQSPLSLPVTPGEPASISCQASESLVHSNRNTYLHWYLQKPGQSPQLLIYKVSNRFSGVPDRFSGSGSGTDFTLKISRVEAEDVGVYYCSQNTHVPPTFGQGTKVEIERTVAAPSVFIFPPSDEQLKSGTASVVCLLNNFYPREAKVQWKVDNALQSGNSQESVTEQDSKDSTYSLSSTLTLSKADYEKHKVYACEVTHQGLSSPVTKSFNRGEC | 106 % of control | – |
| GpH7-A5/GpH7-B3 variant S337_18N/GpL16-k0 (antibody, human IgG1, kappa, also called He Ab S337_18N) heavy 1: not shown heavy 2: not shown light: DIVMTQSPLSLPVTPGEPASISCQASESLVHSNRNTYLHWYLQKPGQSPQLLIYKVSNRFSGVPDRFSGSGSGTDFTLKISRVEAEDVGVYYCSQNTHVPPTFGQGTKVEIERTVAAPSVFIFPPSDEQLKSGTASVVCLLNNFYPREAKVQWKVDNALQSGNSQESVTEQDSKDSTYSLSSTLTLSKADYEKHKVYACEVTHQGLSSPVTKSFNRGEC | 103 % of control | – |
| GpH7-A5/GpH7-B3 variant D265_02A/GpL16-k0 (antibody, human IgG1, kappa, He Ab: mutation in the GpH7-B3 H chain only; also called He Ab) heavy 1: not shown heavy 2: not shown light: DIVMTQSPLSLPVTPGEPASISCQASESLVHSNRNTYLHWYLQKPGQSPQLLIYKVSNRFSGVPDRFSGSGSGTDFTLKISRVEAEDVGVYYCSQNTHVPPTFGQGTKVEIERTVAAPSVFIFPPSDEQLKSGTASVVCLLNNFYPREAKVQWKVDNALQSGNSQESVTEQDSKDSTYSLSSTLTLSKADYEKHKVYACEVTHQGLSSPVTKSFNRGEC | – | 19.9 % of control |
| GpH7-A5/GpH7-B3 variant V266_06M/GpL16-k0 (antibody, human IgG1, kappa, also called He Ab V266_06M) heavy 1: not shown heavy 2: not shown light: DIVMTQSPLSLPVTPGEPASISCQASESLVHSNRNTYLHWYLQKPGQSPQLLIYKVSNRFSGVPDRFSGSGSGTDFTLKISRVEAEDVGVYYCSQNTHVPPTFGQGTKVEIERTVAAPSVFIFPPSDEQLKSGTASVVCLLNNFYPREAKVQWKVDNALQSGNSQESVTEQDSKDSTYSLSSTLTLSKADYEKHKVYACEVTHQGLSSPVTKSFNRGEC | 251 % of control | – |
| GpH7-A5/GpH7-B3 variant S337_16H/GpL16-k0 (antibody, human IgG1, kappa, also called He Ab S337_16H) heavy 1: not shown heavy 2: not shown light: DIVMTQSPLSLPVTPGEPASISCQASESLVHSNRNTYLHWYLQKPGQSPQLLIYKVSNRFSGVPDRFSGSGSGTDFTLKISRVEAEDVGVYYCSQNTHVPPTFGQGTKVEIERTVAAPSVFIFPPSDEQLKSGTASVVCLLNNFYPREAKVQWKVDNALQSGNSQESVTEQDSKDSTYSLSSTLTLSKADYEKHKVYACEVTHQGLSSPVTKSFNRGEC | 105 % of control | – |
| GpH7-A5/GpH7-B3 variant T335_10E/GpL16-k0 (antibody, human IgG1, kappa, also called He Ab T335_10E) heavy 1: not shown heavy 2: not shown light: DIVMTQSPLSLPVTPGEPASISCQASESLVHSNRNTYLHWYLQKPGQSPQLLIYKVSNRFSGVPDRFSGSGSGTDFTLKISRVEAEDVGVYYCSQNTHVPPTFGQGTKVEIERTVAAPSVFIFPPSDEQLKSGTASVVCLLNNFYPREAKVQWKVDNALQSGNSQESVTEQDSKDSTYSLSSTLTLSKADYEKHKVYACEVTHQGLSSPVTKSFNRGEC | 108 % of control | – |
| GpH7-A5/GpH7-B3 variant Y296_20W/GpL16-k0 (antibody, human IgG1, kappa, also called He Ab Y296_20W) heavy 1: not shown heavy 2: not shown light: DIVMTQSPLSLPVTPGEPASISCQASESLVHSNRNTYLHWYLQKPGQSPQLLIYKVSNRFSGVPDRFSGSGSGTDFTLKISRVEAEDVGVYYCSQNTHVPPTFGQGTKVEIERTVAAPSVFIFPPSDEQLKSGTASVVCLLNNFYPREAKVQWKVDNALQSGNSQESVTEQDSKDSTYSLSSTLTLSKADYEKHKVYACEVTHQGLSSPVTKSFNRGEC | 103 % of control | – |
| GpH7-A5/GpH7-B3 variant T335_20W/GpL16-k0 (antibody, human IgG1, kappa, also called He Ab T335_20W) heavy 1: not shown heavy 2: not shown light: DIVMTQSPLSLPVTPGEPASISCQASESLVHSNRNTYLHWYLQKPGQSPQLLIYKVSNRFSGVPDRFSGSGSGTDFTLKISRVEAEDVGVYYCSQNTHVPPTFGQGTKVEIERTVAAPSVFIFPPSDEQLKSGTASVVCLLNNFYPREAKVQWKVDNALQSGNSQESVTEQDSKDSTYSLSSTLTLSKADYEKHKVYACEVTHQGLSSPVTKSFNRGEC | 104 % of control | – |
| GpH7-A5/GpH7-B3 variant S337_08L/GpL16-k0 (antibody, human IgG1, kappa, also called He Ab S337_08L) heavy 1: not shown heavy 2: not shown light: DIVMTQSPLSLPVTPGEPASISCQASESLVHSNRNTYLHWYLQKPGQSPQLLIYKVSNRFSGVPDRFSGSGSGTDFTLKISRVEAEDVGVYYCSQNTHVPPTFGQGTKVEIERTVAAPSVFIFPPSDEQLKSGTASVVCLLNNFYPREAKVQWKVDNALQSGNSQESVTEQDSKDSTYSLSSTLTLSKADYEKHKVYACEVTHQGLSSPVTKSFNRGEC | 100 % of control | – |
| GpH7-A5/GpH7-B3 variant S337_20W/GpL16-k0 (antibody, human IgG1, kappa, also called He Ab S337_20W) heavy 1: not shown heavy 2: not shown light: DIVMTQSPLSLPVTPGEPASISCQASESLVHSNRNTYLHWYLQKPGQSPQLLIYKVSNRFSGVPDRFSGSGSGTDFTLKISRVEAEDVGVYYCSQNTHVPPTFGQGTKVEIERTVAAPSVFIFPPSDEQLKSGTASVVCLLNNFYPREAKVQWKVDNALQSGNSQESVTEQDSKDSTYSLSSTLTLSKADYEKHKVYACEVTHQGLSSPVTKSFNRGEC | 109 % of control | – |
| GpH7-A5/GpH7-B3 variant T335_18N/GpL16-k0 (antibody, human IgG1, kappa, also called He Ab T335_18N) heavy 1: not shown heavy 2: not shown light: DIVMTQSPLSLPVTPGEPASISCQASESLVHSNRNTYLHWYLQKPGQSPQLLIYKVSNRFSGVPDRFSGSGSGTDFTLKISRVEAEDVGVYYCSQNTHVPPTFGQGTKVEIERTVAAPSVFIFPPSDEQLKSGTASVVCLLNNFYPREAKVQWKVDNALQSGNSQESVTEQDSKDSTYSLSSTLTLSKADYEKHKVYACEVTHQGLSSPVTKSFNRGEC | 102 % of control | – |
| GpH7-A5/GpH7-B3 variant S337_07I/GpL16-k0 (antibody, human IgG1, kappa, also called He Ab S337_07I) heavy 1: not shown heavy 2: not shown light: DIVMTQSPLSLPVTPGEPASISCQASESLVHSNRNTYLHWYLQKPGQSPQLLIYKVSNRFSGVPDRFSGSGSGTDFTLKISRVEAEDVGVYYCSQNTHVPPTFGQGTKVEIERTVAAPSVFIFPPSDEQLKSGTASVVCLLNNFYPREAKVQWKVDNALQSGNSQESVTEQDSKDSTYSLSSTLTLSKADYEKHKVYACEVTHQGLSSPVTKSFNRGEC | 104 % of control | – |
| GpH7-A5/GpH7-B3 variant S337_15Y/GpL16-k0 (antibody, human IgG1, kappa, also called He Ab S337_15Y) heavy 1: not shown heavy 2: not shown light: DIVMTQSPLSLPVTPGEPASISCQASESLVHSNRNTYLHWYLQKPGQSPQLLIYKVSNRFSGVPDRFSGSGSGTDFTLKISRVEAEDVGVYYCSQNTHVPPTFGQGTKVEIERTVAAPSVFIFPPSDEQLKSGTASVVCLLNNFYPREAKVQWKVDNALQSGNSQESVTEQDSKDSTYSLSSTLTLSKADYEKHKVYACEVTHQGLSSPVTKSFNRGEC | 100 % of control | – |
| GpH7-A5/GpH7-B3 variant S324_06M/GpL16-k0 (antibody, human IgG1, kappa, also called He Ab S324_06M) heavy 1: not shown heavy 2: not shown light: DIVMTQSPLSLPVTPGEPASISCQASESLVHSNRNTYLHWYLQKPGQSPQLLIYKVSNRFSGVPDRFSGSGSGTDFTLKISRVEAEDVGVYYCSQNTHVPPTFGQGTKVEIERTVAAPSVFIFPPSDEQLKSGTASVVCLLNNFYPREAKVQWKVDNALQSGNSQESVTEQDSKDSTYSLSSTLTLSKADYEKHKVYACEVTHQGLSSPVTKSFNRGEC | 112 % of control | – |
